According to patent US20240287172A1 (SCIRHOM, published 2024):

T1: hiR2-FL-S562E-T7 (human, UniProt Q6PJF5 1-856)
T1 sequence: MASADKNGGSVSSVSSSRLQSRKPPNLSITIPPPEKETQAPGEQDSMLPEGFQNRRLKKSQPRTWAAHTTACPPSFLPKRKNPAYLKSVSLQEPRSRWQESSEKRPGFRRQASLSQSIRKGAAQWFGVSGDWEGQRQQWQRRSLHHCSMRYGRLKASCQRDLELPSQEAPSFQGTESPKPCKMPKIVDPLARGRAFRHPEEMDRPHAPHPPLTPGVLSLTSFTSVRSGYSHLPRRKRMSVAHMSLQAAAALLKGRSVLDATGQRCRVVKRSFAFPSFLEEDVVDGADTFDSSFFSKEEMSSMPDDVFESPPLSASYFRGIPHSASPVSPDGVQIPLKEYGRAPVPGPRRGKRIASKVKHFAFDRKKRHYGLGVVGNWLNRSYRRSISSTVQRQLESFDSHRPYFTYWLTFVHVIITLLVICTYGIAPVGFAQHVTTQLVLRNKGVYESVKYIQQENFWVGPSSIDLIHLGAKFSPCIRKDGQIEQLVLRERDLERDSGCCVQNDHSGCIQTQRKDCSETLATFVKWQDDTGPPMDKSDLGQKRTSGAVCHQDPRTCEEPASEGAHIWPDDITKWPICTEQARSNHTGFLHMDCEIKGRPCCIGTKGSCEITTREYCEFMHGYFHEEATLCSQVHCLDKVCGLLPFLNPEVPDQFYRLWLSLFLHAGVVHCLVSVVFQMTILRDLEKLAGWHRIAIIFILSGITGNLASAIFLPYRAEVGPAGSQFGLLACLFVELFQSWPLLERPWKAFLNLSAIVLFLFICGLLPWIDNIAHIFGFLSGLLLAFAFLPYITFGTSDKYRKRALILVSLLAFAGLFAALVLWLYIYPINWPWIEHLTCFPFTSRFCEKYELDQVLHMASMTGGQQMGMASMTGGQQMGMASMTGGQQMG


Target: T1, hiR2-FL-S562E-T7
Test: FACS, MEF-DKO cells, 3 µg/ml

| Binder | loss of binding vs wild type [%] |
| --- | --- |
| antibody 48 (antibody, V domains shown, mouse IgG, kappa light chain; also called clone #48; purified antibody 48) VH: QVQLQQSGTELVRPGTSVKVSCKASGYAFTNYLIEWVKQRPGQGLEWIGVINPGSGFTKYNEKFKGKATLTADKSSSTVYMHLSSLTSEDSAVYFCARGLYRAMDYWGQGTSVTVSS VL: DIQMTQSPASQSASLGESVTITCLASQTIATWLAWYQQKPGKSPQLLIYGATTLADGVPSRFSGGGSGTKFSFKISSLQAEDFVSYYCQQLYSTPYTFGGGTKLEIK | ≥ 30 |
| antibody 50 (antibody, V domains shown, mouse IgG, kappa light chain; also called clone #50; purified antibody 50) VH: QVQLQQSGAELVRPGASVKVSCKASGYAFSNYLIEWVKQRPGQGLEWIGVINPGSGFTKYNEKFKGKATLTADKSSSTAYMQLSSLTSEDSAVYFCARGLYRAMDYWGQGTSVTVSS VL: DIQMTQSPASQSASLGESVTITCLASQTIGTWLAWYQQKPGKSPQLLIYAAASLADGVPSRFSGGGSGTKFSFKISSLQAEDFVNYYCQQIYSTPYTFGGGTKLEIK | ≥ 30 |
| antibody 34 (antibody, V domains shown, mouse IgG, kappa light chain; also called clone #34; purified antibody 34) VH: QVTLKESGPGILQPSQTLSLTCSFSGFSLSTFSLGVGWIRQSSGKGLEWLAHIWWDDEKYYNPALKSRLTISKDTSKNQVFLKIANVDAADTATYYCARAYYSKSYYALDYWGQGTSVTVSS VL: DIQMTQSPSSLSASLGERVSLTCRASQEISGYLSWLQQKPDGTIKRLIYAASTLDSGVPKRFSGSRSGSDYSLAISSLESEDFADYYCLQYANFPFTFGSGTKLEIK | ≥ 60 |
| antibody 3 (antibody, V domains shown, mouse IgG, kappa light chain; also called clone #3; purified antibody 3) VH: QVTLKESGPGILQPSQTLSLTCSFSGFSLTTFAMGIGWVRQPSGKGLEWLAHIWWDGEKYNNPVLKSRLTISKDTSKNQVFLRIANVDTPDTATYYCARISSIYYIIDNWGQGTSVTVSS VL: DIVLTQSPATLSVTPGHSVSLSCRASQSISNNLHWYQKKSHESPRLLIKYVSQSISGIPSRFSGSGSGTDFTLSINSVETEDFGMYFCQQSYNWPLTFGAGTKLELK | ≥ 30 |
| antibody 5 (antibody, V domains shown, mouse IgG, kappa light chain; also called clone #5; purified antibody 5) VH: QVTLKESGPGILQPSQTLSLTCSFSGFSLSTFGMGVGWIRQPSGKGLEWLAHIWWDDEKYYNSALKSRLTISKATSKNQAFLKIANVDTADTATYYCARISNYGSNYWYFNVWGTGTTVTVSS VL: QVVLTQSPALMSASPGEKVTMTCSAGSSVSCMYWYQQKPGSSPRVLIYDTSNLASGVPARFTGSGSGTSYSLTISRMEAEDAASYYCQQWNSYPLTFGAGTKLELK | ≥ 60 |
| antibody 43 (antibody, V domains shown, mouse IgG, kappa light chain; also called clone #43; purified antibody 43) VH: QVALKESGPGILQPSQTLSLTCSFSGFSLSTFGMGVGWIRQSSGKGLEWLANIWWDDDKYYNPALKSRLTISKDASKNQAFLKIANVDTADTATYYCARIGNYGSNYWYFDVWGTGTTVTVSS VL: QIVLTQSPAIMSASPGERVTMTCSANSRISYMYWYQQKPGSSPRLLIYDTSNLASGVPVRFSGSGSGTSYSLTISRMEAEDAATYNCQQWSSYPLTFGAGTKLELK | ≥ 60 |
| antibody 42 (antibody, V domains shown, mouse IgG, kappa light chain; also called clone #42; purified antibody 42) VH: QVTLKESGPGILQPSQTLSLTCSLSGFSLSTFGRGVGWIRQPSGKGLEWLAHIWWDDEKYYNPALKSRLTISKDTSKNQVFLRIANVDTADTATYYCARIQNYGSNYWYFDVWGTGTTVTVSS VL: LIVLTQSPAIMSASPGEKVTMTCGATSRISYMFWYQQKPGSSPRVLIYDTSNLASGVPVRFSGSGSGTSYSLTISRVEAEDVATYYCQQWNSYPLTFGAGTKLELK | ≥ 60 |
| antibody 44 (antibody, V domains shown, mouse IgG, kappa light chain; also called clone #44; purified antibody 44) VH: QVTLKESGPGILQPSQTLSLTCSFSGFSLSTFGMGVGWIRQPSEKGLEWLAHIWWDDDKYYNPALKSRLTISKDTSKNQIFLKITNVDTAETATYYCSRIGNYGSNYWYFDVWGTGTTVTVSS VL: QIVLTQSPAVMSASPGEKVTMTCTASSSVYYMYWYQQTPGSSPRLLIYDTSNLASGVPVRFSGSGSGTSYSLTISRMEAEDAATYYCQQWNTYPLTFGAGTKLELK | ≥ 30 |
| antibody 22 (antibody, V domains shown, mouse IgG, kappa light chain; also called clone #22; purified antibody 22) VH: QVTLKESGPGILQPSQTLSLTCSFSGFSLSTFGMGVGWIRQPSGKGLEWLAHIWWDDEKYYNSALKSRLTISKATSKNQVFLKIANVDTADTATYYCARISNYGSNYWYFNVWGTGTTVTVSS VL: QVVLTQSPALMSASPGEKVTMTCSAGSSVSYMYWYQQKPGSSPRVLIYDTSNLASGVPARFTGSGSGTSYSLTISRMEAEDAATYYCQQWNSYPLTFGAGTKLELK | ≥ 30 |
